Assay results: paper PMC2174547 (The Journal of Cell Biology, 2000)
Values joined by “and” are separate entries in the source; they are usually repeats but may differ in a detail not shown here. Equal entries are not always repeated. Blank lines part the entries; values can stand above or below the molecule they belong to.

Experiments:
6xHis-PEX19 (human) = 6xHis-PEX19 (human) (UniProt P40855); experiment: far-Western, overlay or dot blot
6xHis-PEX19 = target: T1, 6xHis-PEX19 (human, UniProt P40855 1-299); experiment: far-Western, overlay or dot blot
T1 sequence: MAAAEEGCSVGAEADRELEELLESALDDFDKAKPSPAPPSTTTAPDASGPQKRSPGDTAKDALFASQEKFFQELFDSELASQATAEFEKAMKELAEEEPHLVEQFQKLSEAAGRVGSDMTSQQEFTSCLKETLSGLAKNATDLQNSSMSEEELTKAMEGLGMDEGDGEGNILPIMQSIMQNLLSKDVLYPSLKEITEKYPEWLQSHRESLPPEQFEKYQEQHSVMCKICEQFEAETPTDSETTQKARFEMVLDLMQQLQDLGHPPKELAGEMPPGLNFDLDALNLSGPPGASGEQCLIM

Molecule: 6xHis-PEX14 (from UniProt O75381 1-377) (natural protein)
Kd (6xHis-PEX19 (human)): 350 nM and 800 nM and 500 nM

IC50 (6xHis-PEX19): 30000 nM
B1: 6xHis-PEX14 amino acids 1–147 (domain or fragment)
chain: MASSEQAEQPSQPSSTPGSENVLPREPLIATAVKFLQNSRVRQSPLATRRAFLKKKGLTDEEIDMAFQQSGTAADEPSSLGPATQVVPVQPPHLISQPYSPAGSRWRDYGALAIIMAGIAFGFHQLYKKYLLPLILGGREDRKQLER
